Data: article PMC5906480, “Tau Antibody Structure Reveals a Molecular Switch Defining a Pathological Conformation of the Tau Protein” (Scientific Reports, 2018)
Entries after “also recorded” stand apart in the source; their conditions may differ.

Assays:
[1] = system: normal tau in the soluble tau fraction (S1) from non-transgenic littermates; test: Western and dot blot, non-transgenic littermate brain; format: binding, mouse; settings: C5.2 1 µg/mL overnight 4 °C, 24 weeks old non-tg mice
Description: rTg4510, tTA and non-Tg littermate F1 mice were bred at Taconic, Denmark. Mice expressing the tTA activator transgenes were maintained on 129S6 background strain (Taconic) and mutant tau responder mice were maintained in the FVB/NCrl background strain (Taconic). Mice were screened by PCR using the following primer pairs [NT] and [NT] for the tTA activator transgene and [NT] and [NT] for the mutant tau responder transgene. rTg4510, tTA and non-Tg littermates were group-housed (5 animals/cage) and received water and food ad libitum (Brogaarden, Denmark) as well as environmental enrichment. The light/dark cycle was 12 hours; room temperature was 21 ± 2 °C and a relative humidity of 55% ± 5%. All animal experiments were performed in accordance with the European Communities Council Directive #86/609, the directives of the Danish National Committee on Animal Research Ethics, and Danish legislation on experimental animals (license no. 2014-15-0201-00339). Mice were euthanized by cervical dislocation. Brains were quickly removed, weighed and divided sagittally down the midline to yield two hemispheres. […] Tau and pTau levels were assessed in the samples using 1 μg/mL C5.2 overnight at 4 °C. A secondary fluorophore conjugated IgG antibody was used (IRDye 680 Goat anti-mouse, LICOR biosciences) and the signal was quantified using Odyssey CLx and Image studio software (LI-COR biosciences). […]

[2] = system: non-phosphorylated peptide; test: ELISA, non-phosphorylated peptide; format: binding; settings: plate coated with peptide 2 μg/mL; C5.2 IgG 8 μg/mL–0.05 ng/mL, 1 h room temperature; 405 nm
Procedure: Immulon 4 HBX (extra high-binding) 96-well microtiter plates (Thermo Scientific) were coated with the same peptide used for crystallization diluted to 2 μg/mL in phosphate-buffered saline (PBS) and left overnight at 4 °C (Table 1). Plates were then washed three times in PBS-T (PBS containing 0.05% Tween-20) and blocked in 5% non-fat milk and 3% bovine serum albumin in PBS for 2 hours at room temperature. Plates were subsequently washed 3 times in PBS-T before C5.2 was serially diluted (8 μg/mL–0.05 ng/mL) in PBS and incubated for 1 hour at room temperature. Then, alkaline phosphatase-conjugated goat anti-mouse IgG (Southern Biotech) was diluted 1:2000 in PBS and incubated for 30 minutes at room temperature. Finally, bound IgG was analyzed by addition of p-nitrophenyl phosphate substrate (Thermo Scientific) and measurement at 405 nm on a VersaMax Microplate Reader.
In order to evaluate the ability of C5.2 to exclusively target the phosphorylated epitope, we performed an enzyme-linked immunosorbent assay (ELISA). The peptides used in the assay are the same peptides used for crystallization and diluted to a concentration of 2 μg/mL (Table 1). Binding curves were generated from ELISA data by maintaining plate-bound peptide concentrations and serially diluting C5.2 IgG (Fig. 1c).

B1: C5.2: novel mouse monoclonal antibody that targets the pS396 tau epitope region (antibody, V domains shown)
VH: QVQLQQSDAELVKPGASVKISCKASGYTFTDRTIHWVKQRPEQGLEWIGYIYPGDDSTKYNDMFKAKATLTADKSSNTAYMQLNSLTSDDSAVYFCARRGTMDYWGQGTSVTVSS
VL: DVQMIQSPSSLSASLGDIVTMTCQASQDTSINLNWFQQKPGKAPKLLIYGASNLEDGVPSRFSGSRYGTDFTLTISSLEDEDMATYFCLQHTYLPFTFGSGTKLEIK
- Detection of normal tau (S1) [1]: not detected
- Recognition of peptide (ELISA) [2]: lack of recognition; also recorded: does not bind
